Reference: patent publication US11591404B2, “Treatment of cancer using a CD123 chimeric antigen receptor” (Novartis AG, priority 2014, dated 2023)

B1: 1172: murine CD123 CAR construct, CD123 4-1BBCD3z-CAR, SEQ ID NO: 707, described in PCT/US2014/017328 (protein)
chain: MALPVTALLLPLALLLHAARPGSDIVLTQSPASLAVSLGQRATISCRASESVDNYGNTFMHWYQQKPGQPPKLLIYRASNLESGIPARFSGSGSRTDFTLTINPVEADDVATYYCQQSNEDPPTFGAGTKLELKGGGGSGGGGSSGGGSQIQLVQSGPELKKPGETVKISCKASGYIFTNYGMNWVKQAPGKSFKWMGWINTYTGESTYSADFKGRFAFSLETSASTAYLHINDLKNEDTATYFCARSGGYDPMDYWGQGTSVTVSSASSGTTTPAPRPPTPAPTIASQPLSLRPEACRPAAGGAVHTRGLDFACDIYIWAPLAGTCGVLLLSLVITLYCKRGRKKLLYIFKQPFMRPVQTTQEEDGCSCRFPEEEEGGCELRVKFSRSADAPAYKQGQNQLYNELNLGRREEYDVLDKRRGRDPEMGGKPRRKNPQEGLYNELQKDKMAEAYSEIGMKGERRRGKGHDGLYQGLSTATKDTYDALHMQALPPR
B2: CAR123-4: fully human anti-CD123 scFv CAR with 4-1BB and CD3zeta; CAR amino acid SEQ ID NO: 101 (protein, listed as Homo sapiens)
chain: MALPVTALLLPLALLLHAARPQVQLQQSGAEVKKSGASVKVSCKASGYTFTDYYMHWLRQAPGQGLEWMGWINPNSGDTNYAQKFQGRVTLTRDTSISTVYMELSRLRSDDTAVYYCARDMNILATVPFDIWGQGTMVTVSSASGGGGSGGRASGGGGSDIQMTQSPSSLSASVGDRVTITCRASQSISSYLNWYQQKPGKAPKLLIYAASSLQSGVPSRFSGSGSGTDFTLTISSLQPEDFATYYCQQGDSVPLTFGGGTKVEIKTTTPAPRPPTPAPTIASQPLSLRPEACRPAAGGAVHTRGLDFACDIYIWAPLAGTCGVLLLSLVITLYCK
B3: 1176: murine CD123 CAR construct, CD123 4-1BBCD3z-CAR (26292), SEQ ID NO: 708, described in PCT/US2014/017328 (protein)
chain: MALPVTALLLPLALLLHAARPGSDVQITQSPSYLAASPGETITINCRASKSISKDLAWYQEKPGKTNKLLIYSGSTLQSGIPSRFSGSGSGTDFTLTISSLEPEDFAMYYCQQHNKYPYTFGGGTKLEIKGGGGSGGGGSSGGGSQVQLQQPGAELVRPGASVKLSCKASGYTFTSYWMNWVKQRPDQGLEWIGRIDPYDSETHYNQKFKDKAILTVDKSSSTAYMQLSSLTSEDSAVYYCARGNWDDYWGQGTTLTVSSASSGTTTPAPRPPTPAPTIASQPLSLRPEACRPAAGGAVHTRGLDFACDIYIWAPLAGTCGVLLLSLVITLYCKRGRKKLLYIFKQPFMRPVQTTQEEDGCSCRFPEEEEGGCELRVKFSRSADAPAYKQGQNQLYNELNLGRREEYDVLDKRRGRDPEMGGKPRRKNPQEGLYNELQKDKMAEAYSEIGMKGERRRGKGHDGLYQGLSTATKDTYDALHMQALPPR
B4: CAR123-3: fully human anti-CD123 scFv CAR with 4-1BB and CD3zeta; CAR amino acid SEQ ID NO: 100 (protein, listed as Homo sapiens)
chain: MALPVTALLLPLALLLHAARPQVQLVQSGAEVKKPGASVKVSCKASGYIFTGYYIHWVRQAPGQGLEWMGWINPNSGGTNYAQKFQGRVTMTRDTSISTAYMELSGLRSDDPAVYYCARDMNILATVPFDIWGQGTLVTVSSGGGGSGGGGSGGGGSDIQLTQSPSSLSASVGDRVTITCRASQSISSYLNWYQQKPGKAPKLLIYAASSLQSGVPSRFSGSGSGTDFTLTVNSLQPEDFATYYCQQGDSVPLTFGGGTKVEIKTTTPAPRPPTPAPTIASQPLSLRPEACRPAAGGAVHTRGLDFACDIYIWAPLAGTCGVLLLSLVITLYCKRGRKKLLYIFKQPFMRPVQTTQEEDGCSCRFPEEEEGGCELRVKFSRSADAPAYKQGQNQLYNELNLGRREEYDVLDKRRGRDPEMGGKPRRKNPQEGLYNELQKDKMAEAYSEIGMKGERRRGKGHDGLYQGLSTATKDTYDALHMQALPPR

Tests used:
cynomolgus CD123 = experiment: Cross-reactivity of anti-CD123 clones against cynomolgus CD123; assay type: binding
[1] = system: MOLM14 (CD123+ tumor cells); experiment: CD107a degranulation of CART cells, 2 hours; assay type: cell-based; conditions: 2-hr in vitro assay, CD123+ targets
Protocol: To assess degranulation, CART cells (NVS 2-4, 1172 and 1176 clones) were thawed, rested overnight at a concentration of 2e^6 cells/ml in T cell media. Cells were then counted and resuspended at 1e^6 cells/ml the following day. Tumor target cells (TCM, PMA/iono, MOLM14 or JURKAT) were resuspended at 5e^6 cells/ml. Cells were plated at a ratio of 1e^5 T cell: 5e^5 tumor cell in 48 well plates and incubated for 2 hours in the presence of anti-CD107a PECy7, anti-CD49d purified, and anti-CD28 purified antibodies. Cells were then harvested, stained with anti-CD3 APC and acquired using BD LSR Fortessa (FIG. 7).

Molecule | cross-reactivity against cynomolgus CD123 (cynomolgus CD123) | T cell degranulation (CD107a) [1] [%]
B1 | is not | –
B2 | cross-reactive against cynomolgus CD123 | –
B3 | cross-reactive against cynomolgus CD123 | 65
B4 | cross-reactive against cynomolgus CD123 | –
